# Test results from the supplement of paper PMC9732359.
# ± gives the uncertainty stated by the source.
# Assay: protein stability index of a GFP-peptide fusion (yeast GPS) (PSI 1-4); higher = more stable; sorted into four equal gates, so the index is relative within each strain
# Conditions: doa10∆
# In short: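 The protein stability index of a peptide was calculated by multiplying its read frequency in each gate by that gate's number and adding the products. The peptides were tiled 17-residue stretches of yeast proteins, fused downstream of GFP on a Cherry-expressing plasmid and carried in yeast as a pooled library. Mid-log cultures in leucine-free medium were sorted into four equal gates by GFP/Cherry ratio, and each gate's plasmids were PCR-amplified and Illumina-sequenced.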
row,Sequence,protein stability index
1,STVAKFLARVIKEKFDE [IRR1],2.86 ± 0.1
2,STYLPKLISAFDDLEVE [RRP42],2.63 ± 0.051
3,SVILSVISMFVLPIFTT [YML031W/NDC1],1.29 ± 0.045
4,SVINVSAQRDRRYRKRV [RPS17A],2.34 ± 0.06
5,SVISGNLSLYEATAASH [CSN12],2.28 ± 0.063
6,SVKGKVVIDAFRLIDTG [RPN11],1.83 ± 0.12
7,SVLDEQEQYQTNTFEGS [SNU114],3.12 ± 0.14
8,SVPEGTIVSNVEEKPGD [RPL2A],3.23 ± 0.1
9,SVSFKVFLLLQAYFSRL [BRR2],1.39 ± 0.044
10,SVSGSPRPSYSSRPNVN [YMR129W/POM152],2.8 ± 0.091
11,SVVAKQLLNGQKIVVVR [RPL16A],1.25 ± 0.049
12,SVVRVLVHTQIRKTPLA [RPL3],1.19 ± 0.076
13,SWVQPRIISGDQITKMK [RPN9],3.76 ± 0.26
14,SYAGKQVVGPFHTSFSA [SMC4],2.7 ± 0.078
15,SYDCTGVNELAPIPKGR [POP1],2.84 ± 0.061
16,SYKMNSSAADITMESVH [PRP8],3.32 ± 0.11
17,SYLSNSLDTSASTINGA [YML103C/NUP188],2.31 ± 0.058
18,SYNLEYIESKFCPGEIV [YMR129W/POM152],3.15 ± 0.13
19,SYNNTGISDDENDEEDI [RRP4],2.85 ± 0.11
20,SYVEPVLVASAKGLQTV [RPL31A],2.2 ± 0.059
21,TAAEKKERLTKEAAAVA [RPL8A],3.25 ± 0.12
22,TAAFTAMICEAKGLIEN [YJR042W/NUP85],2.62 ± 0.067
23,TADAEILINTARIHAQN [PRE9],2.92 ± 0.094
24,TADKIRIHAKNFEAALF [GAL11],2.13 ± 0.068
25,TAEERVGRRAANLRVLN [RPL15A],2.83 ± 0.12
26,TAETNNKVHETSSKSSS [YDL088C/ASM4],2.86 ± 0.039
27,TAFQTQRTAQDRVQQDS [YML031W/NDC1],2.94 ± 0.086

row,Sequence,protein stability index
1,TAKKTNRSAYDSKNTPN [YDL088C/ASM4],2.68 ± 0.089
2,TALEHKVVNGNSADAAY [FAS2],2.84 ± 0.08
3,TANDQYSSILGNSFNKS [YCG1],3.13 ± 0.069
4,TANDRQINNVHLIPNEI [RPN4],2.88 ± 0.063
5,TANTGTIGKRRTTTNTT [TAF14],3.18 ± 0.06
6,TCRKHTQHKVTQYKAGK [RPL42A],3.09 ± 0.14
7,TDEALFENVKLLAEYDN [MED4],3.02 ± 0.11
8,TDENTPSADGADKKDDS [ITC1],3.04 ± 0.11
9,TDLGKDIPFFPSSEKPN [SSN2],2.7 ± 0.059
10,TDPKELYNNAHVYARDL [RPC40],3.51 ± 0.23
11,TDSDFAKYHAKLNKKLQ [SRP68],2.97 ± 0.059
12,TDVKLTLPQPRLNKLNS [SMD1],2.73 ± 0.066
13,TEDGWIYHGNHDVGELF [PRE2],2.05 ± 0.057
14,TEDIRIRAQNFKSALAN [RRP6],2.35 ± 0.067
15,TEGHKGHEELKRRIEEE [ISW2],3.33 ± 0.085
16,TEHVRQNAKLLANLIRD [RRP6],1.54 ± 0.046
17,TEIENYLLENNQVGTDE [YDL116W/NUP84],3.11 ± 0.11
18,TEIISTLSNGLIASHYG [BRR2],2.55 ± 0.076
19,TEISGLKNVNKRAFENF [SMC3],3.28 ± 0.079
20,TEKEPVPAVVDDPLENM [SNF6],2.85 ± 0.073
21,TELTHHLLPRNEWIKAQ [QCR7],2.37 ± 0.068
22,TESPLKTVDSSIQPIES [SSN2],2.99 ± 0.066
23,TETFEKPQRTNTLRMKH [RPB2],3.05 ± 0.16
24,TEVSRKSMKYVKKILPL [ECM29],2.34 ± 0.28
25,TEYRGTLVSTDNYFNLQ [SMX3],1.83 ± 0.038
26,TFGINLIYVNPFMLQWG [FAS1],2.22 ± 0.067
27,TFGKKADVTSNIDSSAQ [YOR098C/NUP1],2.09 ± 0.058

row,Sequence,protein stability index
1,TFIKDCLFTKCLEDPEK [POP4],1.57 ± 0.11
2,TFIYFAYFLIIVPVIST [COB],1.68 ± 0.05
3,TFLPPLLLKLASPHASV [ECM29],1.63 ± 0.039
4,TGAGVSTSLGIPDFRSS [SIR2],2.19 ± 0.079
5,TGAPPYYYNTKIYKLEN [YMR129W/POM152],2.8 ± 0.063
6,TGDADEPELRVLSTEEI [RPO21],3.59 ± 0.13
7,TGLKLYSRITLIIDDPS [RPP1],2.22 ± 0.065
8,TGNGTTTTSNTSGTNIA [YOR098C/NUP1],2.96 ± 0.045
9,TGNTTSKSAFSFGTANT [YOR098C/NUP1],2.5 ± 0.064
10,TGQNFLTSNISSLVRSC [REC8],3.21 ± 0.12
11,TGRMRYLKHVSRRFKNG [RPL37A],2.67 ± 0.059
12,TGSDREVQRILIELLTQ [RPT3],3.02 ± 0.14
13,TGTARLNSMPNNVNEYS [YJL039C/NUP192],2.82 ± 0.1
14,THKVTDIYSHEYKVITS [YMR129W/POM152],1.71 ± 0.065
15,THQSPPPPPQQSQPIAN [SNF5],3.01 ± 0.057
16,THSYNFMRQNLEWNMAN [RPC82],2.45 ± 0.064
17,TIDWVEAGLQLCRQGHN [PRP8],2.08 ± 0.18
18,TIETFNEAALVVNITHH [RPB5],1.69 ± 0.11
19,TIFKSGEIDFIKNIGKS [YML103C/NUP188],1.64 ± 0.069
20,TIKISTNDDSIKNLTVQ [RGR1],2.88 ± 0.13
21,TISSLFVQLCEMGYLIQ [RPC82],1.85 ± 0.061
22,TITDLIEQGIPKHSYLS [SIR4],3.05 ± 0.059
23,TIVNDSNYDWLFQLLNA [RPN9],2.34 ± 0.074
24,TKCSTVVKASELDQFWQ [SRP14],2.17 ± 0.041
25,TKEKVNGASVPINLHPS [RPL26A],2.54 ± 0.067
26,TKESQPTIEEDLTRVYK [FAS2],3.46 ± 0.12
27,TKFQTTDRESYPRLQDP [YCS4],3 ± 0.072

row,Sequence,protein stability index
1,TKIGAKRIHSVRTRGGN [RPS8A],2.84 ± 0.15
2,TKIPQIGDKFASRHGQK [RPB2],1.57 ± 0.073
3,TKNGTPNPNNMKTVQSP [GAL11],2.96 ± 0.086
4,TKNLSILTSKVNAIKNE [DSN1],1.66 ± 0.076
5,TKPGVYYVPYSKLMPVL [RPC82],1.54 ± 0.059
6,TKSHNTVQSWLCDLFVN [NUT1],1.55 ± 0.036
7,TKSMVKIAEQYSKRIEE [RPN11],2.32 ± 0.075
8,TLAEVKAAGLTAAYART [RPL13A],1.38 ± 0.11
9,TLDKPNAEATKEEFSSA [CSE2],2.99 ± 0.11
10,TLDRNTAAETFKLFNKY [RPL8A],3.03 ± 0.088
11,TLELESFLEGSKALNSI [RGR1],2.54 ± 0.066
12,TLIKKKQDEKKSSELEL [SMC2],3.24 ± 0.076
13,TLKDYQIKGLQWMVSLF [SNF2],3.01 ± 0.1
14,TLKLRARQRGKLKKSEE [SRP68],3.44 ± 0.15
15,TLLARAVAHHTDCKFIR [RPT6],3.09 ± 0.11
16,TLLESNLCKIIEPFECV [RPN6],2.26 ± 0.085
17,TLLNFVSNNVLRRLEIL [ECM29],1.63 ± 0.1
18,TLQDIGFYQIKKIVDSK [YMR129W/POM152],2.64 ± 0.095
19,TLTELKDALSNSILSVR [SRB2],3.29 ± 0.068
20,TMEVKSFPILDQCVGQV [YMR129W/POM152],2.19 ± 0.09
21,TNAKLPNVDLVTALEVL [RGR1],2.09 ± 0.089
22,TNDRLNREAATKEVESN [DIS3],2.79 ± 0.14
23,TNRHTLALETVLIKMVK [SIR3],2.84 ± 0.11
24,TNSPQISVTRQVVLGGT [SMC2],2.82 ± 0.078
